Source: patent US20060104980A1

How the values were obtained:
[1] = target: HCV 1b E2 deletion construct pDN-411 (influenza virus; Hepatitis C virus genotype 1b); assay: GNA capture ELISA, HEK-293 extracts
[2] = target: HCV 1b E2 deletion construct pDN-411 (influenza virus; Hepatitis C virus genotype 1b); assay: flow cytometry, transiently transfected HEK-293 cells, 10 ug/ml

Row | Substance | OD [1] [od] | mean fluorescence [2]
1 | HMAb CBH-17 (antibody) | 0.1 to 0.5 | 
2 | HMAb CBH-8C (antibody) | > 0.5 | 
3 | HMAb CBH-4B (antibody) | > 0.5 | 17
4 | HMAb CBH-7 (antibody) | > 0.5 | 19
5 | HMAb CBH-5 (antibody) | > 0.5 | 17
6 | HMAb CBH-8E (antibody) | 0.1 to 0.5 | 
7 | HMAb CBH-2 (antibody) | 0.1 to 0.5 | 
